“And” between values parts separate entries of the source, which are not always exact repeats. Equal entries are not always repeated.
Conditions: Saccharomyces cerevisiae (strain ATCC 204508 / S288c), Thermal, DSC, reversible: yes
[1] = pH 4.7, 51.4 °C, sodium acetate 50 mM, structure 1YCC
[2] = pH 4.7, sodium acetate 50 mM, structure 1YCC
[3] = pH 6, 57.1 °C, sodium phosphate 100 mM, structure 1YCC
[4] = pH 6, sodium phosphate 100 mM, structure 1YCC
[5] = pH 6, sodium phosphate 10 mM, structure 1YCC

Chain of Cytochrome c isoform 1 wild type, P00044 (P00044 whole entry, canonical isoform): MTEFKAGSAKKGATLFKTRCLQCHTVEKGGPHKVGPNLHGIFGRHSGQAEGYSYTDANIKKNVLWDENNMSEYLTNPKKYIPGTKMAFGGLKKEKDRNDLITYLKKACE
Chain of Cytochrome c isoform 1 T75E|C108T, P00044 T75E C108T (P00044 whole entry T75E/C108T, canonical isoform): as the sequence (P00044 whole entry, canonical isoform) above, with T75E, C108T counted along it
Chain of Cytochrome c isoform 1 T75E|T102A|C108T, P00044 T75E T102A C108T (P00044 whole entry T75E/T102A/C108T, canonical isoform): as the sequence (P00044 whole entry, canonical isoform) above, with T75E, T102A, C108T counted along it
Chain of Cytochrome c isoform 1 T102A|C108T, P00044 T102A C108T (P00044 whole entry T102A/C108T, canonical isoform): as the sequence (P00044 whole entry, canonical isoform) above, with T102A, C108T counted along it
Chain of Cytochrome c isoform 1 C108T, P00044 (P00044 whole entry C108T, canonical isoform): as the sequence (P00044 whole entry, canonical isoform) above, with C108T counted along it

Substance	unfolding enthalpy (calorimetric) [1]	heat capacity change of unfolding [2] [kcal/mol/K]	unfolding enthalpy (calorimetric) [2]	unfolding enthalpy (van 't Hoff) [2]	unfolding enthalpy (calorimetric) [3]	heat capacity change of unfolding [4] [kcal/mol/K]	unfolding enthalpy (calorimetric) [4]	unfolding enthalpy (van 't Hoff) [4]	heat capacity change of unfolding [5] [kcal/mol/K]	unfolding enthalpy (calorimetric) [5]	unfolding enthalpy (van 't Hoff) [5]	also measured
Cytochrome c isoform 1 T75E|T102A|C108T, P00044 T75E T102A C108T	75 kcal/mol and 77 kcal/mol	1.7	85 kcal/mol and 130 kcal/mol	102 kcal/mol and 169 kcal/mol	83 kcal/mol and 92 kcal/mol	1.7	92 kcal/mol and 143 kcal/mol	120 kcal/mol and 157 kcal/mol	–	–	–	–
Cytochrome c isoform 1 T102A|C108T, P00044 T102A C108T	78 kcal/mol and 67 kcal/mol	1.8	84 kcal/mol and 121 kcal/mol	118 kcal/mol and 133 kcal/mol	84 kcal/mol	1.8	91 kcal/mol and 144 kcal/mol	109 kcal/mol and 144 kcal/mol	–	–	–	–
Cytochrome c isoform 1 wild type, P00044	–	–	–	–	–	–	–	–	–	–	–	unfolding enthalpy (calorimetric) (pH 4.7, 51.4 °C, sodium acetate 50 mM): 42 kcal/mol and 49 kcal/mol; heat capacity change of unfolding (pH 4.7, sodium acetate 50 mM): 1.4 kcal/mol/K; unfolding enthalpy (calorimetric) (pH 4.7, sodium acetate 50 mM): 40 kcal/mol; unfolding enthalpy (van 't Hoff) (pH 4.7, sodium acetate 50 mM): 52 kcal/mol; unfolding enthalpy (calorimetric) (pH 6, 57.1 °C, sodium phosphate 100 mM): 78 kcal/mol and 62 kcal/mol; Tm (pH 6, sodium phosphate 10 mM): 81.4 °C; heat capacity change of unfolding (pH 6, sodium phosphate 100 mM): 1.4 kcal/mol/K; unfolding enthalpy (calorimetric) (pH 6, sodium phosphate 100 mM): 78 kcal/mol and 98 kcal/mol; unfolding enthalpy (van 't Hoff) (pH 6, sodium phosphate 100 mM): 101 kcal/mol and 127 kcal/mol
Cytochrome c isoform 1 C108T, P00044	65 kcal/mol and 68 kcal/mol	1.7	69 kcal/mol and 116 kcal/mol	82.8 kcal/mol and 151 kcal/mol	81 kcal/mol and 75 kcal/mol	–	–	–	1.7	86 kcal/mol and 122 kcal/mol	95 kcal/mol and 146 kcal/mol	–
Cytochrome c isoform 1 T75E|C108T, P00044 T75E C108T	80 kcal/mol	1.5	89 kcal/mol and 125 kcal/mol	97.9 kcal/mol and 138 kcal/mol	90 kcal/mol and 91 kcal/mol	1.5	135 kcal/mol	149 kcal/mol	1.5	98 kcal/mol	108 kcal/mol	Tm [5]: 62.6 °C; Tm [4]: 86.3 °C

Source: FireProtDB (doi:10.1016/s0167-4838(99)00071-0)
